Drawing on patent US20070178531A1 (BIOCHECK, published 2007), this text covers A450 for one molecule.

Substitutions are numbered along the chain they refer to.

Test [1] addresses T1, Human Id2: Histidine (human, UniProt Q02363 1-134, limits assumed).
T1 construct: Fusion protein made in E. coli from vector pGW07; also called h-Id2: His; not shown: His tag
T1 sequence (looked up): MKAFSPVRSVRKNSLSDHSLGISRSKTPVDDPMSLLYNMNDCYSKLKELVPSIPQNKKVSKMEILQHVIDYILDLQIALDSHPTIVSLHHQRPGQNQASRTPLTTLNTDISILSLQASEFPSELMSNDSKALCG
Nature of the test: ELISA, Ab 0.250 µg/ml. A general note: ELISA stands for enzyme-linked immunosorbent assay.

Test [2] deals with T2, Human Id3: Histidine (human, UniProt Q02535 1-119 at identity 1.00)).
T2 construct: Fusion protein made in E. coli from vector pGW07; also called h-Id3: His; Human Id3 (coated wells); not shown: His tag
T2 chain: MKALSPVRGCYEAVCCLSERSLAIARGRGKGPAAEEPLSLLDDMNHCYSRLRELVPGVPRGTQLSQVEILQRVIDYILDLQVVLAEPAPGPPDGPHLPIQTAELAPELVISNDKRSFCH
Nature of the test: ELISA, Ab 0.250 µg/ml.

The target in test [3] is T3, Mouse Id1: Histidine (mouse, UniProt P20067-2 1-148, limits assumed).
T3 construct: Fusion protein made in E. coli from vector pGW07; also called m-Id1-His; not shown: His tag
T3 sequence (looked up): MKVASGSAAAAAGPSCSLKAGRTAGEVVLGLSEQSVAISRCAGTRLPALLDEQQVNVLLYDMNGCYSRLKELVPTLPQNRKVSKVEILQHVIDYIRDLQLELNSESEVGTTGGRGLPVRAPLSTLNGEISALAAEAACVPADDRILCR
Kind of test: ELISA, Ab 0.250 µg/ml.

Test [4] has as its target T4, Human Id1: Histidine (human, UniProt P41134 1-155, limits assumed).
T4 construct: Fusion protein made in E. coli from vector pGW07; also called h-Id1: his; not shown: His tag
T4 sequence (looked up): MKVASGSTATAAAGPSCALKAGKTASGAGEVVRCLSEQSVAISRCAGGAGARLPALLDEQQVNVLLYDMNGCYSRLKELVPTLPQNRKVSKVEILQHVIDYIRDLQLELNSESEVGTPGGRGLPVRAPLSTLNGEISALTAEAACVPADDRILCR
Nature of the test: ELISA, Ab 0.250 µg/ml.

Test [5] concerns the target T5, Mouse Id2: Histidine (mouse, UniProt P41136 1-134, limits assumed).
T5 construct: Fusion protein made in E. coli from vector pGW07; also called m-Id2: His; not shown: His tag
T5 sequence (looked up): T1 sequence (looked up) with S60T, A131V
Nature of the test: ELISA, Ab 0.250 µg/ml.

The target of test [6] is T1, Human Id2: Histidine. Nature of the test: ELISA, positive control (stated to be BCH-4/6-1) 0.50 µg/ml. The protocol:
(§1) 1. Dispense 100 μL of antibody diluent, diluted rabbit monoclonal human Id3, and mouse/human Id3 hybridoma supernatants into appropriate wells. […] 2. Incubate at room temperature with mechanical shaking at 750 rpm for 90 minutes. [0165] 3. Remove the incubation mixture by flicking plate content into an appropriate waste container followed by rinsing the wells 5 times with distilled water. [0166] 4. Strike the wells sharply onto absorbent paper or paper towels to remove all residual water droplets. [0167] 5. Dispense 100 μL of 1:50,000 Goat Anti-Rabbit IgG-HRP Conjugate Reagent into each well. Gently mix for 5 seconds. [0168] 6. Incubate at room temperature with mechanical shaking at 750 rpm for 90 minutes. [0169] 7. Repeat procedures 3 and 4. [0170] 8. Dispense 100 μL of TMB Reagent into each well. Gently mix for 5 seconds. [0171] 9. Incubate at room temperature with mechanical shaking at 750 rpm for 20 minutes. […] 10. Add 100 μL of Stop Solution (1N HCl) into each well. [0173] 11. Gently mix for 10 seconds to ensure a complete mixing. [0174] 12. Read optical density at A450 nm.
(§2) The materials and method are the same as those described in Example 9 except the following.
(§3) Rabbit monoclonal anti-mouse Id3, hybridoma supernatant was used as the test antibody. Protein G purified, rabbit monoclonal anti-mouse/human Id3 antibody, BCH-4/6-1, 0.92 mg/ml in 0.25% BSA was used as positive controls.

Test [7] deals with T3, Mouse Id1: Histidine. The test is described as above. The protocol:
as §1, §2, §3

Test [8] has as its target T4, Human Id1: Histidine. Described as above. As for the experimental part: as §1, §2, §3
Test [9] has as its target T5, Mouse Id2: Histidine. The test is described as above. As for the experimental part: as §1, §2, §3
Test [10] has as its target T1, Human Id2: Histidine. Nature of the test: ELISA, Ab 0.100 µg/ml.
The target of the next test is T6, Mouse Id3: Histidine (mouse, UniProt P41133 1-119).
T6 construct: Fusion protein made in E. coli from vector pGW07; also called m-Id3: His; Mouse Id3 (coated wells); not shown: His tag
T6 sequence: T2 chain with G31S, A33S, A34T, A105T, N112K
Kind of test: ELISA, Ab 0.100 µg/ml.

Test [11] concerns the target T2, Human Id3: Histidine. Kind of test: ELISA, Ab 0.100 µg/ml.
In test [12] the target is T3, Mouse Id1: Histidine. Nature of the test: ELISA, Ab 0.100 µg/ml.
The target of test [13] is T4, Human Id1: Histidine. Kind of test: ELISA, Ab 0.100 µg/ml.
The target in test [14] is T5, Mouse Id2: Histidine. Kind of test: ELISA, Ab 0.100 µg/ml.

B1: rabbit monoclonal anti-mouse/human Id3, clone #BCH-4/#6-1 (antibody, V domains shown)
VH: QSVEESGGRLVTPGTPLTLTCTASGFSLSNVYIHWVRQAPGKGLEWIGYISDGDTARYATWAKGRFTISKTSSTTVNLKMTSLTTEDTATYFCARQGFNIWGPGTLVTVSL
VL: AVLTQTPSPVSAAVGGTVSISCQSSQSVWNNNWLSWFQQKPGQPPKLLIYETSKLESGVPSRFKGSGSGTQFTLTISDVQCDDAATYYCLGGYWTTSDNNVFGGGTEVVVK
notes: Rabbit IgG from a rabbit hybridoma; also called m/h Id3 MoAb 6-1
Take B1: the A450 in the test with Human Id2: Histidine [1] is 0.071 A450; with Human Id3: Histidine [2], 2.74 A450; with Mouse Id1: Histidine [3], 0.058 A450; with Human Id1: Histidine [4], 0.061 A450; with Mouse Id2: Histidine [5], 0.071 A450; with Human Id2: Histidine [6], 3.23 A450. Moreover, the A450 in the test with Mouse Id1: Histidine [7] stood at 2.2 A450; with Human Id1: Histidine [8], 2.13 A450; with Mouse Id2: Histidine [9], 3.1 A450; with Human Id2: Histidine [10], 0.058 A450; with Mouse Id3: Histidine it was 2.42 A450; in the test with Human Id3: Histidine [11], 1.98 A450. Besides, the results for the A450 with Mouse Id1: Histidine [12], in the test with Human Id1: Histidine [13] and in the test with Mouse Id2: Histidine [14] were 0.085 A450, 0.083 A450 and 0.067 A450, respectively.
